# Experiment: yeast display, Sf9 membrane polyspecificity reagent, FACS + sequencing; frameworks hold sequencing errors
# In short: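 Genes from sorted yeast were amplified by colony PCR, read by MiSeq 2 × 250 sequencing and filtered on CDR length. These cells carried a synthetic nanobody library in Saccharomyces cerevisiae BJ5465 and were sorted by FACS into low and high (top ~1%) gates on anti-HA and streptavidin fluorescence. Polyreactivity is labelled according to the gate of origin.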
row,Sequence,polyreactivity (PSR sort gate)
1,QVQLVESGGGLVQAGGSLRLSCAASGNTFTWYTMGWYRQAPGKERELVAGITWSGGSTFYADSVKGRFTISRDNAKNTVYLQMNSLKPEDTAVYYCAVSTEVNRYHAKYDYWGQGTQVTVSS,low polyreactivity
2,QVQLVESGGGLVQAGGSLRLSCAASGNTFTWYTMGWYRQAPGKERELVAVITSDGSTYYADSVKGRFTISRDNAKNTVYLQMNRLKPEDTAVYYCNALSADWYPEEDYWGQGTQVTVSS,low polyreactivity
3,QVQLVESGGGLVQAGGSLRLSCAASGNTFTYYALGWYRQAPGTEREVVASISSGGSTNYADSVKGRFTISRDNAKNTVYLQMNRLKPEDTAVYYCARGWSFSTRRFQHTRYYYWGQGTQVTVSS,high polyreactivity
4,QVQLVESGGGLVQAGGSLRLSCAASGNTFVAYTMGWYRPAPGKERELVAAISWRGGTTYYADSVKGRFTISRDNAKNTVYLQMNSLKPEDTAVYYCAARTSYISHGYVTHGLYYWGQGTQVTVSS,high polyreactivity
5,QVQLVESGGGLVQAGGSLRLSCAASGNTFVDYAMGWYRQAPGKERELVAAISDGGSTNYADSVKGRFTISRDNAKNTVYLQMNSLKPEDTAVYYCAKDELYIPGVWPYYEYDYWGQGTQLTVSS,low polyreactivity
6,QVQLVESGGGLVQAGGSLRLSCAASGNTFVPYAMGWYRQAPGKERELVAAITFSAGRTYYADSVKGRFTISRDNAKNTVYLQMNSLKPEDTAVYYCNVYWYNNYRGYYYWGQGTQVTVSS,high polyreactivity
7,QVQLVESGGGLVQAGGSLRLSCAASGNTFVQNTMGWYRQAPGKERELVAAISSRGGSTYYADSVKGRFTISRDNAKNTVYLQMNSLKPEDTAVYYCAARSKVRRSYDYRGQGTQVTVSS,high polyreactivity
8,QVQLVESGGGLVQAGGSLRLSCAASGNTFVRNAMGWYRQAPGKERELVAAMSSRGTSTYYADSVKGRFTISRDNAKNTVYLQMNSLKPEDTAVYYCAAYQYPADFKLYYYWGQGTQVTVSS,high polyreactivity
9,QVQLVESGGGLVQAGGSLRLSCAASGNTFVYYAMGWYRQAPGKERELVAAISSSGGRTYYADSVKGRFTISRDNAKNTVYLQMNSLKPEDTAVYYCAARGPYTTKAYDYWGQGTQVTVSS,high polyreactivity
10,QVQLVESGGGLVQAGGSLRLSCAASGNTFWKYAMGWYRQAPGKERELVAAITRGGARTYYADSVKGRFTISRDNAKYSVYLQINSLNPEDTAVYYCAAQYWTEYGSWGQGTEVTVSS,low polyreactivity
11,QVQLVESGGGLVQAGGSLRLSCAASGNTFWSYTMGWYRQAPGKERELVAAITRSGGSTYYADSVKGRFTISRDHAKNTVYLQMNSLKPEDTAVYYCAADYYSASRFGYWGQGTQVTVSS,high polyreactivity
12,QVQLVESGGGLVQAGGSLRLSCAASGNTFYGYAMGWYRQAPGKERELVASITLSGDSMYYADSVKGRFTISRDNAKNTVYLQMNSLIPDDTAVYYCNADWYFQYPYDYWGQGTQVSVSS,low polyreactivity
13,QVQLVESGGGLVQAGGSLRLSCAASGNTFYGYAMGWYRQAPGKERELVASITLSGDSTYYADSVKGRFTISRDNAKNTVYLQMNSLKPEDTAVYDCAGVYTYPLGYYHYTYDYWGQGTQVTVSS,low polyreactivity
14,QVQLVESGGGLVQAGGSLRLSCAASGNTFYGYAMGWYSQAPGQERELVASITLSGDSTYYADSVKGRFTISRDNAKNTVYLQMNTLKPEDTAVYYCAGVYTYPLGYYHYTYDYWGQGTQVTVSS,low polyreactivity
15,QVQLVESGGGLVQAGGSLRLSCAASGNTFYGYTMGWYIQAPGKDRELVAAISGRGGSTTYADSVKGRFTISRDNAKNTVYLQMNSLNPEDTAVYYCAATYVYIRTRFYYWGQGTQVTVSS,high polyreactivity
16,QVQLVESGGGLVQAGGSLRLSCAASGNTFYKYAMGWYRQAPGKERELVADISWSGGSTYYADSVKGRFTISRDNAKNTVYLQMNSLKREDTAVYYCNADTPVWDGHAYPVDYWGQGTQVTVSS,low polyreactivity
17,QVQLVESGGGLVQAGGSLRLSCAASGNTFYPHAMGWYRQAPGTERELVAAISSTGGRTYYADSVKGRFTISRDNAKNTVYLQMNSLKPEDTAVYFCNTYACVAGDYWGQGTQVTVSS,high polyreactivity
18,QVQLVESGGGLVQAGGSLRLSCAASGNTFYPYAMGWYRQAPGKERELVAAISFSSGSTYYADSVKGRFTISRDNAKNTVYLQMNSLKPEETAVYYCAAEANGNFAWWEYYYWGQGTQVTVSS,high polyreactivity
19,QVQLVESGGGLVQAGGSLRLSCAASGNTFYPYAMGWYRQAPGKERELVAAITSSGGSTYYADSVKGRFTISRDNAKNTVYLQMNSLKPEDTAVYYCAADPDWYSPFKYCYWGQGTQVTVSS,low polyreactivity
20,QVQLVESGGGLVQAGGSLRLSCAASGNTFYRNAMGWYRQAPGKERELVAGISNGGSTNYADSVKGRFTISRDNAKNTVYLQMNSLKPEDTAVYYCAKDEPKVSRAFDYWGQGTQVTVSS,low polyreactivity
21,QVQLVESGGGLVQAGGSLRLSCAASGNTFYRYAMGWYRQAPGKERELVAAITWSGSRTYYADSVKGRFTISRDNAKNTVYLQMNSLKPEDTAVYYCAAPFWYVGPAMDYWGQGTQVTVSS,low polyreactivity

row,Sequence,polyreactivity (PSR sort gate)
1,QVQLVESGGGLVQAGGSLRLSCAASGNTFYSYAMGWYRQAPGKERELVAAITWGGRTKYADSVKGRFTISRDNAKNTVYLQMNSLKPEDTAVYYCAARLYHGKTKYDYWGQGTQVTVSS,high polyreactivity
2,QVQLVESGGGLVQAGGSLRLSCAASGNTFYTNVMGWYRQAPGKERELVAAITQSGARTYYADSVKGRFTISRDNAKNTVYLQMNSLKPEDTAVYYCASEHYFYRDYPYEFWGQGTQVTVSS,high polyreactivity
3,QVQLVESGGGLVQAGGSLRLSCAASGNTIGVNAMGWYRQAPGKERELVAVITSGGGSTYYADSVKGRFTISRDNAKNTVYLQMNSLKPEDTAVYYCARRSYRLYTLGNGYWGQGTQVTVSS,low polyreactivity
4,QVQLVESGGGLVQAGGSLRLSCAASGNTIIRYAIAWYRQAPGKERELVAAISYSGGRTYYADSVKGRFTISRDNANNTVYLQMNSLKPEDTAVYYCNAASRYGGDYWGQGTQVTVSS,high polyreactivity
5,QVQLVESGGGLVQAGGSLRLSCAASGNTIIRYPMGWYRPAPGKERELVAAISYSGGRTYYADSVKGRFTISRDSAKNTVYLQMNRLKPEDSAVLYCNAASRYGGDYWGQGSQVTVSS,high polyreactivity
6,QVQLVESGGGLVQAGGSLRLSCAASGNTIKGYAMGLYRQAPGKERELVAAISWSGSSTYYADSVKGRFTISRDNAKYSVYLHKNSVKPEDTAVYYCNRKYLGRYASVYGYGYWGQGTQVTVSS,high polyreactivity
7,QVQLVESGGGLVQAGGSLRLSCAASGNTIRSYAMGWYRPAPGKERELVAAISGRGGSTYYADSVKGRFTISRDNAKNTVYLEMNSLKPEDTAVNYCAAESRRVNYANDYWGQGTEVTVSS,high polyreactivity
8,QVQLVESGGGLVQAGGSLRLSCAASGNTLAYYVMGWYRQAPGKERELVAAITSGGTTNYADSVKGRFTISRDNAKNTVYLQMNSLNPEDTAVYYCAGCPSKRPPWLRQGGYDYWGQGTQVTVSS,low polyreactivity
9,QVQLVESGGGLVQAGGSLRLSCAASGNTLDAYAMGWYRQAPGKERELVAAITSGGSTYYADSVKGRFTISRDNAKNTVYLQMNILKPEDTAVYYCNADGHPSDPGYDYWGQGTQVTVSS,low polyreactivity
10,QVQLVESGGGLVQAGGSLRLSCAASGNTSVPYAMGWYRQAPGKERELVARITWSTGRTYYADSVKGRFTISRDNAKNTVYLQMNSLKPEDTAVYYCATEALLPCSGGDYWGQGTQVTVSS,low polyreactivity
11,QVQLVESGGGLVQAGGSLRLSCAASGNTYGRYAMGWYRQAPGKERELVAAISSSGTSTYYADSVKGRFTISRDNAKNTVYLQMNSLKPVDTAVYNCGAVYWTFWGTIASRYDYWGQGTQVTVAS,high polyreactivity
12,QVQLVESGGGLVQAGGSLRLSCAASGNTYLNAMGWYRQAPGKERELVAAISKGGADTYYADSVKGRFTISRDNAKNTVYLQMNSLKPEDTAVYYCAADGYADGWWVEYPWTYDYWGQGTQVTVSS,low polyreactivity
13,QVQLVESGGGLVQAGGSLRLSCAASGPIFTSNAMGWYRQAPGKERELVAAISRRGTRTYYADSVKGRFTISRDNAKNTVYLQMNSLKPEDTAVYYCAATTGEQEYYWGQGTQVTVSS,high polyreactivity
14,QVQLVESGGGLVQAGGSLRLSCAASGPMFTSNAMGWYRQAPGKERELVAAISRRGTRTYYADSVKGRFTISRDIAKHSVYLQMNSLKPEDTAVYYCAATTGEQEDYWGQGTQVTVSS,high polyreactivity
15,QVQLVESGGGLVQAGGSLRLSCAASGPTFFYYAMGWYRQAPGKERELVAAIRRSGGRTRYADSVKGRFTISRDNAKNTVYLQMNSLKPEDTAVYYCAADDGTHRRGYDYWGQGTQVTVSS,low polyreactivity
16,QVQLVESGGGLVQAGGSLRLSCAASGPTFPFNAMGWYRQAPGKERELVAAISWRDGRTYYADSVKGRFTISRDNAKNTVYLQMNSLKPEDTAVYYCNVVKRRSDWGMDYWGQGTQVTVSS,high polyreactivity
17,QVQLVESGGGLVQAGGSLRLSCAASGPTFWRNAMGWYRQAPGKEREFVASISRSGGSTYYADSVKGRFTISRDNAKNTVYLQMNSLKPEDTAVYYCAALGVRGYRGPGGQDYNSWGQGTQVTVSS,high polyreactivity
18,QVQLVESGGGLVQAGGSLRLSCAASGPTYKYNAMGWYRQAPGKEREMVAAISSTGSTNYADSVKGRFTISRDNAKNTVYLQMNSLKPEDTAVYYCAASFYFVQWGWYYYWGQGTQVTVSS,low polyreactivity
19,QVQLVESGGGLVQAGGSLRLSCAASGPTYWPYAMGWYRQAPGKERELVAAITYSGGGTYYADSVKGRFTISRDNAKNTVYLQMNSLKPEDTAVYYCAKYNYPGRPFDYWGQGTQVTVSS,low polyreactivity
20,QVQLVESGGGLVQAGGSLRLSCAASGQTFGGYAMGWYRQAPGKERELVAAITKRGGNTDYADSVKGRFTISRDKAKNTVYLQMTSLKPEDTAVYYCAASRAVGFGYWGQGTQVTVSS,high polyreactivity

# Source: the nanobody polyreactivity screen of Harvey et al. (2022)
